Assay results as given in article PMC3865217.

Columns and labels:
Test in all cases: SPR
Conditions in all cases: EMSA: 5 mM Hepes pH 7.5, 0.05 mM EDTA, 0.014% Nonidet P40, 5% glycerol, 30 min, 23 C; SPR: 5 mM Hepes pH 7.5, 5 mM phosphate pH 7.5, 0.05 mM EDTA …
[1] = system: Yap8bZIPL26A (Saccharomyces cerevisiae)
[2] = system: Yap8bZIP (Saccharomyces cerevisiae)
[3] = system: Yap8bZIPLNNR (Saccharomyces cerevisiae)

Substance: Y8RE 25-bp SPR oligomer
- Kd [1]: 17.2 nM
- Kd [2]: 6.1 nM
- Kd [3]: 6.5 nM
